Target: the molecule itself
Experiment: SEC-MALS

B1: DHR10-mica6-NC (designed binder)
chain: GSGGSSEVLELAIRLIKEVVENAQREGYDISEAAAAAAEAFAAVAEAAKAAGITSSEVLELAIRLIKEVVENAQREGYDISEAAAAAAEAFAAVAEAAKAAGITSSEVLELAIRLIKEVVENAQREGYDISEAAAAAAEAFAAVAEAAKAAGIASSEVLELAIRLIKEVVENAQREGYDISEAAAAAAEAFAAVAEAAKAAGITSSEVLELAIRLIKEVVENAQREGYDISEAAAAAAEAFAAVAEAAKAAGIASSEVLELAIRLIKEVVENAQREGYDISEAAAAAAEAFAAVAEAAKAAGIGWE
For B1, which “stoichiometry N” value is on record?
The value was 2.1 times the MW of a monomer.
